Assay results from patent publication US20240218057A1 (ROCKEFELLER UNIVERSITY, published 2024).

B1: C903 (antibody, V domains shown)
VH: EVQLVESGGGLIQPGGSLRLSCAASGFIVSRNYMSWVRQAPGKGLEWVSIIYSGGSTFYADSVKGRFTISRDNSKNTVYLQMNSLRAEDTAVYYCARDYGDFYFDYWGQGTLVTVSS
VL: EIVLTQSPGTLSLSPGERATLSCRASQSVSSSYLAWYQQKPGQAPRLLIFDVSSRATGIPDRFSGSGSGTDFTLTISRLEPEDFAVYYCQQYGSSPRTFGQGTKVEIK
B2: C1063 (antibody, V domains shown)
VH: EVQLVQSGAEVKKPGESLKISCKGYGNSFNNYWIAWVRQMPVKGLEWMGVINPGDSDTRYSPSFQGQVTISVDKSISTAYLQWSSLKASDTAMYYCARTWSPAAVAFFDSWGQGTLVTVS
VL: NFMLTQPHSVSESPGKTVTISCTRSSDSIGSNYVQWYQQRPGSSPTIVIYEDSQRPSGVPHRFSGSFDSSSNSASLTISGLKTEDEADYYCQSWDSGNLVFGGGTKLTVL
B3: C906 (antibody, V domains shown)
VH: EVQLVESGGGLIKPGRSLRLSCTASGFTFGDYAMTWFRQAPGKGLEWVGFIRSKAYGGTTGYAASVKYRFTISRDDSKSIVYLQMDSLKTEDTAVYYCTRWDGWSQHDYWGQGTLVTVSS
VL: DIVMTQSPLSLSVTPGEPASISCRSSQSLLHSNGINYFDWYLQKPGQSPQLLIYLGSNRASGVPDRFSGSGSGTDFTLKISRVEAEDVGVYYCMQVLQIPYTFGQGTKLEI
B4: C1066 (antibody, V domains shown)
VH: EVQLVESGGGLVQPGRSLRLSCAASGFMFDDYAMHWVRQAPGKGLEWVSGINWSSADIGYVDSVKGRFTISRDNAKNSLYLQMNSLRTEDTAFYYCAKGWFGELLGGSDSWGQGTLVTVSS
VL: QLVLTQSSSASASLGSSVKLTCTLNSGHSSYIIAWHQQQPGKAPRYLMKLEGSGSYNKGSGVPDRFSGSSSGADRYLTISNLQFEDEADYYCATWDSNTQVFGGGTKLTVL
B5: C1067 (antibody, V domains shown)
VH: QVQLVQSGAEVKKPGASVKVSCKASRDTFTTHYIHWVRQAPGQGLEWMGIINPSGGSISYAQKFQGRVTMTRDTSTSTVYMELSSLRSEDTAVYYCARGGIVPHLSNWFDPWGQGTLVTVSS
VL: EIVLTQSPGTLSLSPGERATLSCRASQSVSSSYLAWYQQKPGQAPRLLIYGASSRATGIPDRFTGSGSGTDFTLTISRLEPEDFAVYYCQQYGRSSGFTFGPGTKVDIK
B6: C904 (antibody, V domains shown)
VH: QVQLQQWGAGLLKPSETLSLTCAVNGGSLSLYYWSWIRQSPGKGLEWIGEINHFGGSDYKPSLKSRVSISVDTSTNQFSLKLSSVTAADTAVYYCARKPLLHSNISPGAFDIWGQGTMVTVSS
VL: EIVLTQSPGTLSLSPGERATLSCRASQSVAGSYLAWYQQKPGQAPRLLIYGASSRATGVPDRISGSGSGTDFTLTISRLEPEDFAVYYCQQYTNTPRTFGGGTKVEI
B7: C905 (antibody, V domains shown)
VH: QVQLQESGPGLVTPSQTLSLTCSVSGGSIHSRDFYWGWIRQHPGKGLEWIGHIYYTGNTYYNPSLKSRVTISADTSKNQFSLKLSSVTAADTAVYYCARATVVITLHWFDPWGQGTLVTVSS
VL: NFMLTQPHSVSESPGKTVTISCTGSGGSIASNYVQWYQQRPGSAPTTVIYEDNERPSGVPDRFSGSIDSSSNSASLTISGVKTEDEADYFCQSYDVGNPVIFGGGTKLTVL
B8: C1065 (antibody, V domains shown)
VH: EVQLVESGGGLIQPGGSLRLSCAASGFTVSRNYMSWVRQAPGKGLEWVSVIYSGGSTFYADSVKGRFTISRDNSKNTLYLQMNSLRAEDTAVYYCARGLPTGEGWNYFDYWGQGTLVTVSS
VL: QSALTQPASVSGSPGQSITISCTGTSSDIGGYHYVSWYQQHPGKAPKLMIYDVSNRPSGISNRFSGSKSGNTASLTISGLQAEDEADYYCSSYASSSVIFGGGTKLTVL
B9: C1068 (antibody, V domains shown)
VH: QVQLVESGGGVVQPGRSLRLSCAASGFTFSTFAMHWVRQAPGKGLEWVAVTSYDGSNKYYADSVKGRFTISRDNSKNTLYLQMNSLRAEDTAVYYCARGLLWFGESEYFQHWGQGTLVTVSS
VL: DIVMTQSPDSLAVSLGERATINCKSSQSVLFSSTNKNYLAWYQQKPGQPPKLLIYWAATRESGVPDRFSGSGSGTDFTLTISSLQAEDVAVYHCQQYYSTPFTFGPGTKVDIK

Target: T1, SARS-COV-2 RBD (SARS-COV-2, UniProt P0DTC2 319-539)
T1 construct: also called WT RBD
Experiment: ELISA, RBD coated on plate

| Binder | EC50 [ng/mL] |
| --- | --- |
| B1 | 2.54 |
| B2 | 3.04 |
| B3 | 1.07 |
| B4 | 3.01 |
| B5 | 2.93 |
| B6 | 3.31 |
| B7 | 3.06 |
| B8 | 3.52 |
| B9 | 2.48 |
